According to publication PMC4831024 (Nature Communications, 2016):

Biological target: T1, Ku heterodimer (Ku70/Ku80), full length, recombinant human (human, UniProt P12956 1-609; P13010 1-732)
T1 construct: Ku70, human; Ku80, human; also called recombinant Ku; full-length Ku heterodimer; source: insect cells, baculovirus expression system, purified (immobilized metal-chelate chromatography, gel filtration)
Test: pull-down; 50 nM Strep-tagged WRN protein immobilised on Streptavidin Mag Sepharose beads, 50 nM recombinant untagged Ku, 1 h at 4 °C; 20 mM Hepes pH 7.5, 150 mM NaCl, 5% glycerol, 0.5 mM TCEP, 0.05% IGEPAL-CA640; SDS–PAGE, Coomassie/Instant Blue
Settings: both partners purified

T1 sequence (P12956 whole entry, chain 1 of 2): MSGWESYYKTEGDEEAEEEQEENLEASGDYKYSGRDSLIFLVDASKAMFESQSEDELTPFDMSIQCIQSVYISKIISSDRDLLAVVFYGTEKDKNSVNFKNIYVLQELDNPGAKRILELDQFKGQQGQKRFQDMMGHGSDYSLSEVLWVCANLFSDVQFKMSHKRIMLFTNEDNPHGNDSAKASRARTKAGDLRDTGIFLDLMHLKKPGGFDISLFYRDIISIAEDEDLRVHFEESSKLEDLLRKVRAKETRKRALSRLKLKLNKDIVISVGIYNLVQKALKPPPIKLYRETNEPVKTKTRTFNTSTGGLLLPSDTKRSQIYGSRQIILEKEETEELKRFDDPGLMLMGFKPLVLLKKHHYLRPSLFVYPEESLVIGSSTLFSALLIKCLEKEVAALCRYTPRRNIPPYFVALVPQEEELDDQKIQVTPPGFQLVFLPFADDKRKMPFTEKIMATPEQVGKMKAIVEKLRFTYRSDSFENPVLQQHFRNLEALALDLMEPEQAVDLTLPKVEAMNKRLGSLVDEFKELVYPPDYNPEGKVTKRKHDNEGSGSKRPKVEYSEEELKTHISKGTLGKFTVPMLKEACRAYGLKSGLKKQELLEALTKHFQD
T1 sequence (P13010 whole entry, chain 2 of 2): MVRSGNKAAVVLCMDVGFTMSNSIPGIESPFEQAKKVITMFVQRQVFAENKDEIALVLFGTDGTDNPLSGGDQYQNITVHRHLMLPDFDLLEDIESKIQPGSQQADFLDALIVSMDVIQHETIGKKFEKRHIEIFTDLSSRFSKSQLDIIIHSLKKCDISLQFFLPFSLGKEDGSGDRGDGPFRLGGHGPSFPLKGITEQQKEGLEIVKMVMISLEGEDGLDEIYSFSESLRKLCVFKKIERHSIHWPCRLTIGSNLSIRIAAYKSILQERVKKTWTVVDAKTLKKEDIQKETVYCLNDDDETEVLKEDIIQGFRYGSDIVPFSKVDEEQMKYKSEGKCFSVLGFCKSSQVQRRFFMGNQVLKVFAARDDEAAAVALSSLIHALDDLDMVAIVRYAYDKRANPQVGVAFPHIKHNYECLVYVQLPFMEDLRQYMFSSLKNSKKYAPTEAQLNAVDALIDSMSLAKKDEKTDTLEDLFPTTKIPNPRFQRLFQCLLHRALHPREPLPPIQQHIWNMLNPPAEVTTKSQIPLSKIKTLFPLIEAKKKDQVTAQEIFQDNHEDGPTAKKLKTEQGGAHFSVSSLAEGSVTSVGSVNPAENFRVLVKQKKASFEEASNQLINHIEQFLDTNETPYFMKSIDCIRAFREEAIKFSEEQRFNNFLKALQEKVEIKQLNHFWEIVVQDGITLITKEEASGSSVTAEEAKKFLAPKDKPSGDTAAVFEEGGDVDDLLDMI

B1: Strep-tagged WRN^W18G (natural protein)
chain: not shown
notes: Werner syndrome protein (WRN), human, full length, W18G; source: insect cells, baculovirus expression system, purified (Strep-Tactin Superflow Plus cartridge, Superose 6 gel filtration)
**Q.** Does B1 bind?
**A.** binds
